Data from patent US20230235040A1.

T1: hu-IL-36β (human IL-36β, N-terminally truncated active form R5-E157) (human)
T1 sequence: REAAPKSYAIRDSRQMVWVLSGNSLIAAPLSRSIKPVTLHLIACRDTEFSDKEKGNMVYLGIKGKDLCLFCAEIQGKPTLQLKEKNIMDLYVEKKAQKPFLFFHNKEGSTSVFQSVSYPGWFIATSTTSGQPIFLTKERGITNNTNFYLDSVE


How the values were obtained:
Assay in all cases: ELISA, yeast Fab supernatant, anti-Fab-HRP
[1] = target: hu-IL-36γ (human IL-36γ, N-terminally truncated active form S18-D169) (human) (UniProt Q9NZH8)
[2] = target: hu-IL-36α (human IL-36α, N-terminally truncated active form K6-F158) (human) (UniProt Q9UHA7)
[3] = target: T1, hu-IL-36β (human IL-36β, N-terminally truncated active form R5-E157) (human)

Chain of hu-IL-36α (human IL-36α, N-terminally truncated active form K6-F158) (human) (Q9UHA7 6-158 limits assumed): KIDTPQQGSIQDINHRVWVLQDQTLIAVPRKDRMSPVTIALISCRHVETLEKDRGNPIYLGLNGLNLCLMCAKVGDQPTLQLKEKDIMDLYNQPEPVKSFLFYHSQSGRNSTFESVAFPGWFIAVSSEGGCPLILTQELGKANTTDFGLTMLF
Chain of hu-IL-36γ (human IL-36γ, N-terminally truncated active form S18-D169) (human) (Q9NZH8 18-169 limits assumed): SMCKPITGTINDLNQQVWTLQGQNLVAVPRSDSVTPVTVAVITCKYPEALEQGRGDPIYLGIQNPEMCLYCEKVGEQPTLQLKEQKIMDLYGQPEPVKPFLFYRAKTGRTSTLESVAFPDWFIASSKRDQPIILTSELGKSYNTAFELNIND

Binder | ELISA OD450 [1] [OD450] | ELISA OD450 [2] [OD450] | ELISA OD450 [3] [OD450]
mAb7.0 Fab (yeast clone culture supernatant) (Fab, V domains shown) VH: QVQLVESGGGVVQPGRSLRLSCAASGFTFSSYGMHWVRQAPGKGLEWVAVISYGGSERYYADSVKGRFTISRDNSKNTLYLQMNSLRAEDTAVYYCAREPWYSSRGWTGYGFDVWGQGTLVTVSS VL: EIVLTQSPGTLSLSPGERATLSCRASQSVSSNYLAWYQQKPGQAPKLLIYSASSLQSGVPSRFSGSGSGTDFTLTISSLQPEDFATYYCQQTYSYPPTFGQGTKVEIK | 0.0724 | 0.0604 | –
mAb8.0 Fab (yeast clone culture supernatant) (Fab, V domains shown) VH: QVQLVQSGAEVKKPGSSVKVSCKASGGTFSNYAISWVRQAPGQGLEWMGGILPILGTVDYAQKFQGRVTITADESTSTAYMELSSLRSEDTAVYYCAREPWYRLGAFDVWGQGTLVTVSS VL: DIQMTQSPSSLSASVGDRVTITCRASQTIYKYLNWYQQKPGKAPKLLIYAASSLQSGVPSRFSGSGSGTDFTLTISSLQPEDFATYYCQQYSSIPYTFGQGTKVEIK | 0.073 | 0.0698 | –
mAb2.0 Fab (yeast clone culture supernatant) (Fab, V domains shown) VH: QLQLQESGPGLVKPSETLSLTCTVSGGSISTSSYYWGWIRQPPGKGLEWIGSIYYTGNTYYNPSLKSRVTISVDTSKNQFSLKLSSVTAADTAVYYCARVRYGVGVPRYFDPWGQGTLVTVSS VL: QSVLTQPPSVSGAPGQRVTISCTGSSSNIGAHYDVHWYQQLPGTAPKLLIYGNDNRPSGVPDRFSGSKSGTSASLAITGLQAEDEADYYCQSYDYSLSGYVFGGGTKLTVL | – | – | 0.0604
mAb6.0 Fab (yeast clone culture supernatant) (Fab, V domains shown) VH: QLQLQESGPGLVKPSETLSLTCTVSGGSITSSNYYWGWIRQPPGKGLEWIGSIDYTGSTYYNPSLKSRVTISVDTSKNQFSLKLSSVTAADTAVYYCARGKYYETYLGFDVWGQGTLVTVSS VL: QSVLTQPPSVSGAPGQRVTISCTGSSSNIGAGYDVHWYQQLPGTAPKLLIYGNTNRPSGVPDRFSGSKSGTSASLAITGLQAEDEADYYCQSYDISLSGWVFGGGTKLTVL | 0.0656 | 0.0638 | –
mAb3.0 Fab (yeast clone culture supernatant) (Fab, V domains shown) VH: QLQLQESGPGLVKPSETLSLTCTVSGGSISSTSYYWGWIRQPPGKGLEWIGSIHYSGNTYYNPSLKSRVTISVDTSKNQFSLKLSSVTAADTAVYYCARVHYGGYIPRRFDHWGQGTLVTVSS VL: QSVLTQPPSVSGAPGQRVTISCTGSSSNIGAGYDVHWYQQLPGTAPKLLIYGNTNRPSGVPDRFSGSKSGTSASLAITGLQAEDEADYYCQSYDYSLRGYVFGGGTKLTVL | – | – | 0.11
mAb1.0 Fab (yeast clone culture supernatant) (Fab, V domains shown) VH: QVQLVESGGGVVQPGRSLRLSCAASGFSFSAYAMHWVRQAPGKGLEWVAVISYDGTNEYYADSVKGRFTISRDNSKNTLYLQMNSLRAEDTAVYYCARGIRIFTSYFDSWGQGTLVTVSS VL: QSVLTQPPSVSGAPGQRVTISCTGSSSNIGAHYDVHWYQQLPGTAPKLLIYSNNNRPSGVPDRFSGSKSGTSASLAITGLQAEDEADYYCQSYDYSLRGYVFGGGTKLTVL | – | – | 0.0523
mAb4.0 Fab (yeast clone culture supernatant) (Fab, V domains shown) VH: QLQLQESGPGLVKPSETLSLTCTVSGGSIGSRSYYWGWIRQPPGKGLEWIGSIHYSGTTYYNPSLKSRVTISVDTSKNQFSLKLSSVTAADTAVYYCARVAPSYPRVFDYWGQGTLVTVSS VL: QSVLTQPPSVSGAPGQRVTISCTGSSSNIGAGYDVHWYQQLPGTAPKLLIYGNRNRPSGVPDRFSGSKSGTSASLAITGLQAEDEADYYCQSYDYSLRVYVFGGGTKLTVL | – | – | 0.0513
